Laboratory results published in article PMC6035192, “Understanding the indirect DNA read-out specificity of I-CreI Meganuclease”.

Assays:
I-CreI_D75N [1] = target: T1, I-CreI_D75N (UniProt P05725 1-163, D75N); test: crystal structure; 2 mM Mg2+; uncleaved DNA; MST at 25 C: 50 mM Tris pH 8.0 (I-CreI_3115; 2 or 10 mM CaCl2) or 50 mM Hepes pH 7.5 (I-CreI_D75N; 10 mM CaCl2), 300 mM NaCl, 0.5 mM TCEP, 0.05% Tween-20; details: protein: recombinant; chain copies: 2; blunt
T1 sequence: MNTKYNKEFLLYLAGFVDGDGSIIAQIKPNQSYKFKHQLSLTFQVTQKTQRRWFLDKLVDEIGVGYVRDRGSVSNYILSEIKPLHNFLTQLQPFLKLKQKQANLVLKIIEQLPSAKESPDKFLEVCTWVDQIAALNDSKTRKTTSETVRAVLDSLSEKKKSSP

I-CreI_D75N [2] = target: T1, I-CreI_D75N; test: crystal structure; 2 mM Ca2+; MST at 25 C: 50 mM Tris pH 8.0 (I-CreI_3115; 2 or 10 mM CaCl2) or 50 mM Hepes pH 7.5 (I-CreI_D75N; 10 mM CaCl2), 300 mM NaCl, 0.5 mM TCEP, 0.05% Tween-20; details: protein: recombinant; chain copies: 2; blunt; self-annealed palindrome
[3] = target: T2, I-CreI_3115 chain 1;I-CreI_3115 chain 2 (;, UniProt P05725;P05725 1-163;1-163, Y33G;Q38K;Q44K;R68Y;R70S;D75N;I77Y;I132V|G19S;Y33V;Q38R;S40Q;Q44D;R68A;R70S;D75K …); test: MST; 2 mM CaCl2; labelled DNA; MST at 25 C: 50 mM Tris pH 8.0 (I-CreI_3115; 2 or 10 mM CaCl2) or 50 mM Hepes pH 7.5 (I-CreI_D75N; 10 mM CaCl2), 300 mM NaCl, 0.5 mM TCEP, 0.05% Tween-20; details: protein: recombinant;recombinant; tags: ;; copies: 1;1; label: Cy5 on coding strand (5'); blunt
T2 sequence 1: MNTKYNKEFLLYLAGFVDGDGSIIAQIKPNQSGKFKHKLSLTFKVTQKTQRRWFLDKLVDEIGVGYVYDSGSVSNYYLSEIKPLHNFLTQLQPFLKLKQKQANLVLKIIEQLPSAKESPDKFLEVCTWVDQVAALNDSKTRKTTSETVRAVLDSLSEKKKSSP
T2 sequence 2: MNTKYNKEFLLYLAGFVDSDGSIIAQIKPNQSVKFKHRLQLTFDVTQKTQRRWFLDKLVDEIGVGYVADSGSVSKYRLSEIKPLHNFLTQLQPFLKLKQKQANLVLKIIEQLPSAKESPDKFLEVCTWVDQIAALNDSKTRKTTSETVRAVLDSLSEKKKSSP

B1: I-CreI_D75N_target-null (dsDNA)
DNA 1: TCAAAACTGCGTACGACGTTTTGA
DNA 2: TCAAAACGTCGTACGCAGTTTTGA
- binding result (I-CreI_D75N [1]): binds

B2: I-CreI_D75N_target (dsDNA)
DNA 1: TCAAAACGTCGTACGACGTTTTGA
DNA 2: TCAAAACGTCGTACGACGTTTTGA
- binding result (I-CreI_D75N [2]): binds

B3: I-CreI_3115_target (Cy5) (dsDNA)
DNA 1: TCAGACTTCTCCACAGGAGTCAGA
DNA 2: TCTGACTCCTGTGGAGAAGTCTGA
- Kd [3]: 90 nM
